94 variants from the supplement of paper PMC10567573 can be followed below.

To fix the notation:
B1: WDR41 (parent)
chain: HVGELIIWDALDWTMQAYERNFWD
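Note: lentivirally expressed fusions sorted by FACS into six bins by GFP to DsRed ratio, PSI derived from sequencing read proportions per bin multiplied by bin number.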

Variants of B1 are the subject of the data set. The experiment in a line: protein stability index of a GFP-peptide fusion (GPS, HEK-293T) (PSI 1-6); higher = more stable. Conditions: c terminus: a fixed tail appended.
As to HVGYLIIWDALDWTMQAYERNFWD [E4Y], the protein stability index worked out at 3.22.
As to HVGFLIIWDALDWTMQAYERNFWD [E4F], the protein stability index amounted to 3.77.
HVGMLIIWDALDWTMQAYERNFWD [E4M]: the protein stability index came to 2.15.
As for HVGGLIIWDALDWTMQAYERNFWD [E4G], the protein stability index is 1.85.
Regarding HVGQLIIWDALDWTMQAYERNFWD [E4Q], the protein stability index was 2.46.
The figure for TVGELIIWDALDWTMQAYERNFWD [H1T] is 2.01; for YVGELIIWDALDWTMQAYERNFWD [H1Y] it is 2.18.
The figure for QVGELIIWDALDWTMQAYERNFWD [H1Q] is 1.9; for SVGELIIWDALDWTMQAYERNFWD [H1S] it is 3.37; for PVGELIIWDALDWTMQAYERNFWD [H1P] it is 1.49.
As to IVGELIIWDALDWTMQAYERNFWD [H1I], the protein stability index was 4.28.
For LVGELIIWDALDWTMQAYERNFWD [H1L], the protein stability index came to 2.13.
Take MVGELIIWDALDWTMQAYERNFWD [H1M]: the protein stability index stood at 3.52.
For RVGELIIWDALDWTMQAYERNFWD [H1R], the protein stability index worked out at 1.58.
As to EVGELIIWDALDWTMQAYERNFWD [H1E], the protein stability index came out at 1.27.
With KVGELIIWDALDWTMQAYERNFWD [H1K], the protein stability index was 2.73.
On to NVGELIIWDALDWTMQAYERNFWD [H1N], for which the protein stability index stood at 1.48.
For HVGELIIWDALDWTKQAYERNFWD [M15K], the protein stability index worked out at 3.06.
HVGELIIWDALDWTQQAYERNFWD [M15Q]: the protein stability index is 2.44.
For the variant HVGELIIWDALDWTTQAYERNFWD [M15T], the protein stability index came out at 1.05.
The figure for HVGELIIWDALDWTGQAYERNFWD [M15G] is 1.06; for HVGELIIWDALDWTDQAYERNFWD [M15D] it is 1.76.
As for HVGELIIWDALDWTSQAYERNFWD [M15S], the protein stability index was 1.88.
The figure for HVGELIICDALDWTMQAYERNFWD [W8C] is 1.88.
On to HVGELIIADALDWTMQAYERNFWD [W8A], for which the protein stability index amounted to 2.8.
With HVGELIILDALDWTMQAYERNFWD [W8L], the protein stability index was 3.77.
In the case of HVGELIIMDALDWTMQAYERNFWD [W8M], the protein stability index was determined as 2.85.
For HVGELIINDALDWTMQAYERNFWD [W8N], the protein stability index is 1.3.
As for HVGELIIEDALDWTMQAYERNFWD [W8E], the protein stability index is 2.13.
On to HVGELIISDALDWTMQAYERNFWD [W8S], for which the protein stability index was found to be 1.51.
The figure for HVGELIIRDALDWTMQAYERNFWD [W8R] is 2.78.
The figure for HVGELIIVDALDWTMQAYERNFWD [W8V] is 2.29.
In the case of HVGELIIKDALDWTMQAYERNFWD [W8K], the protein stability index was 1.67.
As to HVGELIIGDALDWTMQAYERNFWD [W8G], the protein stability index is 2.89.
HVGELIIIDALDWTMQAYERNFWD [W8I]: the protein stability index is 2.39.
The figure for HVGELIITDALDWTMQAYERNFWD [W8T] is 1.28; for HVGELIIQDALDWTMQAYERNFWD [W8Q] it is 1.98; for HVGELIIPDALDWTMQAYERNFWD [W8P] it is 2.16.
Take HVGELIIDDALDWTMQAYERNFWD [W8D]: the protein stability index was 2.74.
As for HVGELIIHDALDWTMQAYERNFWD [W8H], the protein stability index is 1.61.
In the case of HVGELIIYDALDWTMQAYERNFWD [W8Y], the protein stability index came to 1.42.
With HVGELGIWDALDWTMQAYERNFWD [I6G], the protein stability index was 1.22.
The figure for HVGELPIWDALDWTMQAYERNFWD [I6P] is 2.41.
The figure for HVGELAIWDALDWTMQAYERNFWD [I6A] is 1.75.
With HVGELMIWDALDWTMQAYERNFWD [I6M], the protein stability index turned out to be 2.35.
The figure for HVGELWIWDALDWTMQAYERNFWD [I6W] is 2.51; for HVGELDIWDALDWTMQAYERNFWD [I6D] it is 1.81.
The figure for HVGELYIWDALDWTMQAYERNFWD [I6Y] is 2.39; for HVGELSIWDALDWTMQAYERNFWD [I6S] it is 1.66; for HVGELHIWDALDWTMQAYERNFWD [I6H] it is 1.59.
As to HVGELKIWDALDWTMQAYERNFWD [I6K], the protein stability index was determined as 2.75.
The figure for HVGELEIWDALDWTMQAYERNFWD [I6E] is 1.36; for HVGELQIWDALDWTMQAYERNFWD [I6Q] it is 1.62.
For the variant HVGELNIWDALDWTMQAYERNFWD [I6N], the protein stability index was 2.17.
In the case of HVGELTIWDALDWTMQAYERNFWD [I6T], the protein stability index is 1.87.
The figure for HVGELRIWDALDWTMQAYERNFWD [I6R] is 1.55; for HVGELCIWDALDWTMQAYERNFWD [I6C] it is 1.47.
HVGELILWDALDWTMQAYERNFWD [I7L]: the protein stability index is 1.93.
On to HVGELINWDALDWTMQAYERNFWD [I7N], for which the protein stability index was found to be 2.19.
With HVGELIQWDALDWTMQAYERNFWD [I7Q], the protein stability index was found to be 2.11.
The figure for HVGELIRWDALDWTMQAYERNFWD [I7R] is 1.99; for HVGELIDWDALDWTMQAYERNFWD [I7D] it is 2.07; for HVGELIMWDALDWTMQAYERNFWD [I7M] it is 1.52.
Turning to HVGELICWDALDWTMQAYERNFWD [I7C], the protein stability index was 1.26.
The figure for HVGELISWDALDWTMQAYERNFWD [I7S] is 2.33; for HVGELIGWDALDWTMQAYERNFWD [I7G] it is 1.8; for HVGELITWDALDWTMQAYERNFWD [I7T] it is 1.41.
As to HVGELIEWDALDWTMQAYERNFWD [I7E], the protein stability index was found to be 2.41.
Take HVGELIPWDALDWTMQAYERNFWD [I7P]: the protein stability index is 2.87.
Consider HVGELIYWDALDWTMQAYERNFWD [I7Y], for which the protein stability index turned out to be 2.71.
For the variant HVGELIVWDALDWTMQAYERNFWD [I7V], the protein stability index was determined as 1.59.
HVGELIHWDALDWTMQAYERNFWD [I7H]: the protein stability index came out at 2.17.
The figure for HVGELIAWDALDWTMQAYERNFWD [I7A] is 1.87; for HVGELIWWDALDWTMQAYERNFWD [I7W] it is 2.44; for HVGELIKWDALDWTMQAYERNFWD [I7K] it is 1.96.
As to HVGELIIWDWLDWTMQAYERNFWD [A10W], the protein stability index is 3.36.
For the variant HVGELIIWDNLDWTMQAYERNFWD [A10N], the protein stability index was 1.05.
In the case of HVGELIIWDKLDWTMQAYERNFWD [A10K], the protein stability index was found to be 1.09.
HVGELIIWDSLDWTMQAYERNFWD [A10S]: the protein stability index was 1.63.
The figure for HVGELIIWDDLDWTMQAYERNFWD [A10D] is 1.6; for HVGELIIWDHLDWTMQAYERNFWD [A10H] it is 1.61.
As to HVGELIIWDPLDWTMQAYERNFWD [A10P], the protein stability index was found to be 1.5.
HVGELIIWDTLDWTMQAYERNFWD [A10T]: the protein stability index was determined as 3.56.
The figure for HVGELIIWDGLDWTMQAYERNFWD [A10G] is 1.95; for HVGELIIWFALDWTMQAYERNFWD [D9F] it is 2.57; for HVGELIIWLALDWTMQAYERNFWD [D9L] it is 1.54.
Take HVGELIIWRALDWTMQAYERNFWD [D9R]: the protein stability index came out at 2.69.
For HVGELIIWHALDWTMQAYERNFWD [D9H], the protein stability index amounted to 2.88.
Turning to HVGELIIWTALDWTMQAYERNFWD [D9T], the protein stability index stood at 3.42.
Consider HVGELIIWMALDWTMQAYERNFWD [D9M], for which the protein stability index is 3.
Turning to HVGELIIWWALDWTMQAYERNFWD [D9W], the protein stability index is 2.99.
Turning to HVGELIIWKALDWTMQAYERNFWD [D9K], the protein stability index was determined as 2.07.
The figure for HVGELIIWPALDWTMQAYERNFWD [D9P] is 3.61; for HVGELIIWCALDWTMQAYERNFWD [D9C] it is 2.29.
